In the supplement of paper PMC5998384:

Assays:
[1] = tested on: HeLa Kyoto; test: thermal stability score vs G1/S (z-score of summed log2 fold changes over temperatures); higher = more thermally stable than in G1/S
[2] = tested on: HeLa Kyoto; test: solubility in G1/S (NP-40 vs SDS abundance) (log2 ratio); higher = more soluble; settings: cell cycle stage: G1/S
[3] = tested on: HeLa Kyoto; test: solubility change mitosis vs G1/S (difference of NP-40 vs SDS log2 ratios) (log2 ratio difference); higher = more soluble in mitosis
[4] = tested on: HeLa Kyoto; test: melting temperature (median over replicates), in situ; higher = more thermally stable
[5] = cell cycle stage: early G1 (4.5 h after nocodazole release)
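Throughout, for melting temperature (median over replicates), in situ: HeLa Kyoto cells synchronized by double thymidine or nocodazole block, proteins quantified by TMT10plex mass spectrometry, three independent biological replicates.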
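Throughout, for solubility change mitosis vs G1/S (difference of NP-40 vs SDS log2 ratios): synchronized HeLa Kyoto cells (double thymidine block for G1/S, nocodazole release for mitosis), protein amounts in NP-40 versus SDS lysates quantified by mass spectrometry, three biological replicates.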
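Throughout, for solubility in G1/S (NP-40 vs SDS abundance): HeLa Kyoto cells arrested at G1/S by double thymidine block, proteins quantified by TMT10plex mass spectrometry in mild NP-40 versus SDS extracts, three biological replicates.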
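Throughout, for thermal stability score vs G1/S (z-score of summed log2 fold changes over temperatures): synchronized HeLa Kyoto cells, proteins quantified by TMT10plex mass spectrometry, three biological replicates, mitosis taken 0.5 h after nocodazole release, G1/S directly after double thymidine block.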

Sequence of PPCS (chain, as listed by the source): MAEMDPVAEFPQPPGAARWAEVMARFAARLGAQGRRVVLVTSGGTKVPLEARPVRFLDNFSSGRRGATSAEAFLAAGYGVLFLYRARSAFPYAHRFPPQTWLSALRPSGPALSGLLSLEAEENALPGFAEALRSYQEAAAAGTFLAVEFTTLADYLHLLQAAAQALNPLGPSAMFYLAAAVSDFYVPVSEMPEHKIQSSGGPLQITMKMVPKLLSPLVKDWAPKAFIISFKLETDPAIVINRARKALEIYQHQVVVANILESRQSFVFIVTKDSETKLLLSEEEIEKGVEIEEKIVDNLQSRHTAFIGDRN

| Substance | thermal stability score [1, 5] | thermal stability score ([1]; cell cycle stage: mitosis) | solubility in G1/S (log2) [2] | solubility change mitosis (log2) [3] | melting temperature ([4]; cell cycle stage: G1/S) | melting temperature ([4]; cell cycle stage: mitosis) |
| --- | --- | --- | --- | --- | --- | --- |
| MPKKAKPTGSGKEEGPAPCKQMKLEAAGGPSALNFDSPSSLFESLISPIKTETFFKEFWEQKPLLIQRDDPALATYYGSLFKLTDLKSLCSRGMYYGRDVNVCRCVNGKKKVLNKDGKAHFLQLRKDFDQKRATIQFHQPQRFKDELWRIQEKLECYFGSLVGSNVYITPAGSQGLPPHYDDVEVFILQLEGEKHWRLYHPTVPLAREYSVEAEERIGRPVHEFMLKPGDLLYFPRGTIHQADTPAGLAHSTHVTISTYQNNSWGDFLLDTISGLVFDTAKEDVELRTGIPRQLLLQVESTTVATRRLSGFLRTLADRLEGTKELLSSDMKKDFIMHRLPPYSAGDGAELSTPGGKLPRLDSVVRLQFKDHIVLTVLPDQDQSDEAQEKMVYIYHSLKNSRETHMMGNEEETEFHGLRFPLSHLDALKQIWNSPAISVKDLKLTTDEEKESLVLSLWTECLIQVV [MINA] | 3.05 | 0.952 | -0.11 | -0.0273 | 53.4 °C | 51.4 °C |
| MVLLHVLFEHAVGYALLALKEVEEISLLQPQVEESVLNLGKFHSIVRLVAFCPFASSQVALENANAVSEGVVHEDLRLLLETHLPSKKKKVLLGVGDPKIGAAIQEELGYNCQTGGVIAEILRGVRLHFHNLVKGLTDLSACKAQLGLGHSYSRAKVKFNVNRVDNMIIQSISLLDQLDKDINTFSMRVREWYGYHFPELVKIINDNATYCRLAQFIGNRRELNEDKLEKLEELTMDGAKAKAILDASRSSMGMDISAIDLINIESFSSRVVSLSEYRQSLHTYLRSKMSQVAPSLSALIGEAVGARLIAHAGSLTNLAKYPASTVQILGAEKALFRALKTRGNTPKYGLIFHSTFIGRAAAKNKGRISRYLANKCSIASRIDCFSEVPTSVFGEKLREQVEERLSFYETGEIPRKNLDVMKEAMVQAEEAAAEITRKLEKQEKKRLKKEKKRLAALALASSENSSSTPEECEEMSEKPKKKKKQKPQEVPQENGMEDPSISFSKPKKKKSFSKEELMSSDLEETAGSTSIPKRKKSTPKEETVNDPEEAGHRSGSKKKRKFSKEEPVSSGPEEAVGKSSSKKKKKFHKASQED [NOP56] | -2.17 | -6.89 | -2.05 | 1.28 | 54.6 °C | 52 °C |
| MSPTPPLFSLPEARTRFTKSTREALNNKNIKPLLSTFSQVPGSENEKKCTLDQAFRGILEEEIINHSSCENVLAIISLAIGGVTEGICTASTPFVLLGDVLDCLPLDQCDTIFTFVEKNVATWKSNTFYSAGKNYLLRMCNDLLRRLSKSQNTVFCGRIQLFLARLFPLSEKSGLNLQSQFNLENVTVFNTNEQESTLGQKHTEDREEGMDVEEGEMGDEEAPTTCSIPIDYNLYRKFWSLQDYFRNPVQCYEKISWKTFLKYSEEVLAVFKSYKLDDTQASRKKMEELKTGGEHVYFAKFLTSEKLMDLQLSDSNFRRHILLQYLILFQYLKGQVKFKSSNYVLTDEQSLWIEDTTKSVYQLLSENPPDGERFSKMVEHILNTEENWNSWKNEGCPSFVKERTSDTKPTRIIRKRTAPEDFLGKGPTKKILMGNEELTRLWNLCPDNMEACKSETREHMPTLEEFFEEAIEQADPENMVENEYKAVNNSNYGWRALRLLARRSPHFFQPTNQQFKSLPEYLENMVIKLAKELPPPSEEIKTGEDEDEEDNDALLKENESPDVRRDKPVTGEQIEVFANKLGEQWKILAPYLEMKDSEIRQIECDSEDMKMRAKQLLVAWQDQEGVHATPENLINALNKSGLSDLAESLTNDNETNS [THOC1] | 0.442 | 3.3 | -0.2 | 0.218 | 49.7 °C | 49.5 °C |
| TXNDC5 | 3.49 | 3.79 | 0.348 | -0.0668 | 55.3 °C | 57.3 °C |
| PPCS | -0.584 | -0.132 | 0.249 | -0.173 | 52.1 °C | 52.9 °C |
| MLAVHFDKPGGPENLYVKEVAKPSPGEGEVLLKVAASALNRADLMQRQGQYDPPPGASNILGLEASGHVAELGPGCQGHWKIGDTAMALLPGGGQAQYVTVPEGLLMPIPEGLTLTQAAAIPEAWLTAFQLLHLVGNVQAGDYVLIHAGLSGVGTAAIQLTRMAGAIPLVTAGSQKKLQMAEKLGAAAGFNYKKEDFSEATLKFTKGAGVNLILDCIGGSYWEKNVNCLALDGRWVLYGLMGGGDINGPLFSKLLFKRGSLITSLLRSRDNKYKQMLVNAFTEQILPHFSTEGPQRLLPVLDRIYPVTEIQEAHKYMEANKNIGKIVLELPQ [TP53I3] | -2.64 | -1.51 | 0.373 | -0.199 | 58.7 °C | 57.3 °C |
| MESMLNKLKSTVTKVTADVTSAVMGNPVTREFDVGRHIASGGNGLAWKIFNGTKKSTKQEVAVFVFDKKLIDKYQKFEKDQIIDSLKRGVQQLTRLRHPRLLTVQHPLEESRDCLAFCTEPVFASLANVLGNWENLPSPISPDIKDYKLYDVETKYGLLQVSEGLSFLHSSVKMVHGNITPENIILNKSGAWKIMGFDFCVSSTNPSEQEPKFPCKEWDPNLPSLCLPNPEYLAPEYILSVSCETASDMYSLGTVMYAVFNKGKPIFEVNKQDIYKSFSRQLDQLSRLGSSSLTNIPEEVREHVKLLLNVTPTVRPDADQMTKIPFFDDVGAVTLQYFDTLFQRDNLQKSQFFKGLPKVLPKLPKRVIVQRILPCLTSEFVNPDMVPFVLPNVLLIAEECTKEEYVKLILPELGPVFKQQEPIQILLIFLQKMDLLLTKTPPDEIKNSVLPMVYRALEAPSIQIQELCLNIIPTFANLIDYPSMKNALIPRIKNACLQTSSLAVRVNSLVCLGKILEYLDKWFVLDDILPFLQQIPSKEPAVLMGILGIYKCTFTHKKLGITKEQLAGKVLPHLIPLSIENNLNLNQFNSFISVIKEMLNRLESEHKTKLEQLHIMQEQQKSLDIGNQMNVSEEMKVTNIGNQQIDKVFNNIGADLLTGSESENKEDGLQNKHKRASLTLEEKQKLAKEQEQAQKLKSQQPLKPQVHTPVATVKQTKDLTDTLMDNMSSLTSLSVSTPKSSASSTFTSVPSMGIGMMFSTPTDNTKRNLTNGLNANMGFQTSGFNMPVNTNQNFYSSPSTVGVTKMTLGTPPTLPNFNALSVPPAGAKQTQQRPTDMSALNNLFGPQKPKVSMNQLSQQKPNQWLNQFVPPQGSPTMGSSVMGTQMNVIGQSAFGMQGNPFFNPQNFAQPPTTMTNSSSASNDLKDLFG [SCYL2] | 0.219 | 0.842 | 0.129 | -0.174 | 52.9 °C | 53.5 °C |
| MSGRGAGGFPLPPLSPGGGAVAAALGAPPPPAGPGMLPGPALRGPGPAGGVGGPGAAAFRPMGPAGPAAQYQRPGMSPGNRMPMAGLQVGPPAGSPFGAAAPLRPGMPPTMMDPFRKRLLVPQAQPPMPAQRRGLKRRKMADKVLPQRIRELVPESQAYMDLLAFERKLDQTIARKRMEIQEAIKKPLTQKRKLRIYISNTFSPSKAEGDSAGTAGTPGGTPAGDKVASWELRVEGKLLDDPSKQKRKFSSFFKSLVIELDKELYGPDNHLVEWHRMPTTQETDGFQVKRPGDLNVKCTLLLMLDHQPPQYKLDPRLARLLGVHTQTRAAIMQALWLYIKHNQLQDGHEREYINCNRYFRQIFSCGRLRFSEIPMKLAGLLQHPDPIVINHVISVDPNDQKKTACYDIDVEVDDPLKAQMSNFLASTTNQQEIASLDVKIHETIESINQLKTQRDFMLSFSTDPQDFIQEWLRSQRRDLKIITDVIGNPEEERRAAFYHQPWAQEAVGRHIFAKVQQRRQELEQVLGIRLT [SMARCD2] | 0.352 | 1.15 | 0.445 | 0.00253 | 48 °C | 49.2 °C |
| MPLRLDIKRKLTARSDRVKSVDLHPTEPWMLASLYNGSVCVWNHETQTLVKTFEVCDLPVRAAKFVARKNWVVTGADDMQIRVFNYNTLERVHMFEAHSDYIRCIAVHPTQPFILTSSDDMLIKLWDWDKKWSCSQVFEGHTHYVMQIVINPKDNNQFASASLDRTIKVWQLGSSSPNFTLEGHEKGVNCIDYYSGGDKPYLISGADDRLVKIWDYQNKTCVQTLEGHAQNVSCASFHPELPIIITGSEDGTVRIWHSSTYRLESTLNYGMERVWCVASLRGSNNVALGYDEGSIIVKLGREEPAMSMDANGKIIWAKHSEVQQANLKAMGDAEIKDGERLPLAVKDMGSCEIYPQTIQHNPNGRFVVVCGDGEYIIYTAMALRNKSFGSAQEFAWAHDSSEYAIRESNSIVKIFKNFKEKKSFKPDFGAESIYGGFLLGVRSVNGLAFYDWDNTELIRRIEIQPKHIFWSDSGELVCIATEESFFILKYLSEKVLAAQETHEGVTEDGIEDAFEVLGEIQEIVKTGLWVGDCFIYTSSVNRLNYYVGGEIVTIAHLDRTMYLLGYIPKDNRLYLGDKELNIISYSLLVSVLEYQTAVMRRDFSMADKVLPTIPKEQRTRVAHFLEKQGFKQQALTVSTDPEHRFELALQLGELKIAYQLAVEAESEQKWKQLAELAISKCQFGLAQECLHHAQDYGGLLLLATASGNANMVNKLAEGAERDGKNNVAFMSYFLQGKVDACLELLIRTGRLPEAAFLARTYLPSQVSRVVKLWRENLSKVNQKAAESLADPTEYENLFPGLKEAFVVEEWVKETHADLWPAKQYPLVTPNEERNVMEEGKDFQPSRSTAQQELDGKPASPTPVIVASHTANKEEKSLLELEVDLDNLELEDIDTTDINLDEDILDD [COPB2] | -0.168 | -0.888 | -0.298 | -0.0942 | 51.7 °C | 51.3 °C |
| MEFPGGNDNYLTITGPSHPFLSGAETFHTPSLGDEEFEIPPISLDSDPSLAVSDVVGHFDDLADPSSSQDGSFSAQYGVQTLDMPVGMTHGLMEQGGGLLSGGLTMDLDHSIGTQYSANPPVTIDVPMTDMTSGLMGHSQLTTIDQSELSSQLGLSLGGGTILPPAQSPEDRLSTTPSPTSSLHEDGVEDFRRQLPSQKTVVVEAGKKQKAPKKRKKKDPNEPQKPVSAYALFFRDTQAAIKGQNPNATFGEVSKIVASMWDSLGEEQKQVYKRKTEAAKKEYLKALAAYKDNQECQATVETVELDPAPPSQTPSPPPMATVDPASPAPASIEPPALSPSIVVNSTLSSYVANQASSGAGGQPNITKLIITKQMLPSSITMSQGGMVTVIPATVVTSRGLQLGQTSTATIQPSQQAQIVTRSVLQAAAAAAAAASMQLPPPRLQPPPLQQMPQPPTQQQVTILQQPPPLQAMQQPPPQKVRINLQQQPPPLQIKSVPLPTLKMQTTLVPPTVESSPERPMNNSPEAHTVEAPSPETICEMITDVVPEVESPSQMDVELVSGSPVALSPQPRCVRSGCENPPIVSKDWDNEYCSNECVVKHCRDVFLAWVASRNSNTVVFVK [TOX4] | 0.423 | 0.887 | -0.562 | 0.0879 | 50.6 °C | 53 °C |
| MPKKKTGARKKAENRREREKQLRASRSTIDLAKHPCNASMECDKCQRRQKNRAFCYFCNSVQKLPICAQCGKTKCMMKSSDCVIKHAGVYSTGLAMVGAICDFCEAWVCHGRKCLSTHACACPLTDAECVECERGVWDHGGRIFSCSFCHNFLCEDDQFEHQASCQVLEAETFKCVSCNRLGQHSCLRCKACFCDDHTRSKVFKQEKGKQPPCPKCGHETQETKDLSMSTRSLKFGRQTGGEEGDGASGYDAYWKNLSSDKYGDTSYHDEEEDEYEAEDDEEEEDEGRKDSDTESSDLFTNLNLGRTYASGYAHYEEQEN [ZNF330] | 3.84 | 0.774 | -0.262 | -0.0758 | 50.4 °C | 50.9 °C |
| MAARRGALIVLEGVDRAGKSTQSRKLVEALCAAGHRAELLRFPERSTEIGKLLSSYLQKKSDVEDHSVHLLFSANRWEQVPLIKEKLSQGVTLVVDRYAFSGVAFTGAKENFSLDWCKQPDVGLPKPDLVLFLQLQLADAAKRGAFGHERYENGAFQERALRCFHQLMKDTTLNWKMVDASKSIEAVHEDIRVLSEDAIRTATEKPLGELWK [DTYMK] | -8.56 | -6.57 | -0.0236 | 0.00796 | 56.9 °C | 54.4 °C |
| MYLQVETRTSSRLHLKRAPGIRSWSLLVGILSIGLAAAYYSGDSLGWKLFYVTGCLFVAVQNLEDWEEAIFDKSTGKVVLKTFSLYKKLLTLFRAGHDQVVVLLHDVRDVSVEEEKVRYFGKGYMVVLRLATGFSHPLTQSAVMGHRSDVEAIAKLITSFLELHCLESPTELSQSSDSEAGDPASQS [C17ORF62] | -1.46 | -0.834 | -0.124 | -0.128 | 55 °C | 55.1 °C |
